The text below walks through data of PMC7116816 (Nature cancer, 2020).

For test [1], the target named is deglycosylated human CD25 (SinoBiological) (Homo sapiens, UniProt P01589, deglycosylated with N-glycosidase F). Put plainly: crystal structure.
Test [2] addresses human CD25 on SU-DHL1 tumor cells (human CD25+) (Homo sapiens, UniProt P01589). Put plainly: flow cytometry on cells. On the technique in general: In flow cytometry, cells or beads pass a laser one at a time.
Test [3] addresses cynomolgus CD25 on HSC-F cells (cynomolgus CD25+) (Macaca fascicularis, UniProt H6WS54). Nature of the test: flow cytometry on cells.

Chain of deglycosylated human CD25 (SinoBiological) (P01589 22-213): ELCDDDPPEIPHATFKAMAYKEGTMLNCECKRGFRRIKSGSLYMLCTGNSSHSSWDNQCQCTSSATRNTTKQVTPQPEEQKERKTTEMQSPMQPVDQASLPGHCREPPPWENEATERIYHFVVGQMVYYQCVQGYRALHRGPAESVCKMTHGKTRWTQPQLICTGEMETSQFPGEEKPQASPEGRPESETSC
Chain of human CD25 on SU-DHL1 tumor cells (human CD25+) (P01589 22-272): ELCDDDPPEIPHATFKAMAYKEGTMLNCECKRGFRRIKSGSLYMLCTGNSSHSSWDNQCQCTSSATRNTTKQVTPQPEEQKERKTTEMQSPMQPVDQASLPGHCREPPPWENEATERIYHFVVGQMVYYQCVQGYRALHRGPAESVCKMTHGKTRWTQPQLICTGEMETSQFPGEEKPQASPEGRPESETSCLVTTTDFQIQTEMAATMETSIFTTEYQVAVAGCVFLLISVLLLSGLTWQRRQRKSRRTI

B1: Fab fragment of RG6292 (Fab, V domains shown)
VH: QVQLVQSGAEVKKPGSSVKVSCKASGGTFSSLAISWVRQAPGQGLEWMGGIIPIFGTANYAQKFQGRVTITADESTSTAYMELSSLRSEDTAVYYCARGGSVSGTLVDFDIWGQGTMVTVSS
VL: not shown
For B1, the binding result in test [1] was “binds”.

B2: RG6292 (FF), the fully fucosylated version of RG6292 (antibody, V domains shown)
VH: QVQLVQSGAEVKKPGSSVKVSCKASGGTFSSLAISWVRQAPGQGLEWMGGIIPIFGTANYAQKFQGRVTITADESTSTAYMELSSLRSEDTAVYYCARGGSVSGTLVDFDIWGQGTMVTVSS
VL: not shown
With B2, in test [2], the binding result is listed as “binds”.

B3: RG6292, a-fucosylated human IgG1 mAb (anti-human CD25^NIB) (antibody, V domains shown)
VH: QVQLVQSGAEVKKPGSSVKVSCKASGGTFSSLAISWVRQAPGQGLEWMGGIIPIFGTANYAQKFQGRVTITADESTSTAYMELSSLRSEDTAVYYCARGGSVSGTLVDFDIWGQGTMVTVSS
VL: not shown
On to B3, for which, in test [3], the binding result is reported as “binds”.
